Assay results as given in publication PMC2474647.

Molecular target: GST-HP1β (UniProt P83917)
Test: pull-down; GST-HP1β bound to glutathione beads, in nuclear extraction buffer, incubated with FLAG-TIF1βs purified from 293T cells by FLAG peptide elution; Western blot quantified with ImageGauge, normalised to GST-HP1β

UniProt P83917, sequence (P83917 whole entry): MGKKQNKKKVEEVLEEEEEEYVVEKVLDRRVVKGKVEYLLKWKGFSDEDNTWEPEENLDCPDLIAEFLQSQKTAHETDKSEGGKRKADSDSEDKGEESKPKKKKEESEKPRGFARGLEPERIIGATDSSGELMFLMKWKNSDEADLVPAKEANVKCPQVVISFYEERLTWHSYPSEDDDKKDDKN

relative level pulled down by GST-HP1β (normalised to GST-HP1β) | Substance
1.63 | FLAG-TIF1β/S473A, expressed in 293T cells (natural protein)
1.39 | FLAG-TIF1β (wild type), expressed in 293T cells (natural protein)
